{
  "source": "paper PMC2193676",
  "molecular_target": "biotinylated K^d-SYIPSAEK(ABA)I (H-2K^d heavy chain, human β2-microglobulin, photoreactive PbCS(ABA) peptide) (not stated | human | Plasmodium berghei)",
  "test": "SPR",
  "data": [
    {"substance": "soluble CD8αβ (extracellular portions of murine CD8α and CD8β fused to leucine zipper units) (complex)", "values": [
      {"measurement": "Kd", "result": 99, "unit": "µM"}
    ]}
  ]
}
